# Test results as given in publication PMC8571522, “siRNA screening identifies METTL9 as a histidine Nπ-methyltransferase that targets the proinflammatory protein S100A9” (The Journal of Biological Chemistry, 2021).
# T1: recombinant S100A9 prepared by cleavage of GST-S100A9, after the reaction with GST-METTL9 in the absence of … (mouse, UniProt P31725 1-113)
# T1 construct: S100A9, mouse; also called GST-cleaved S100A9; mS100A9; source: E. coli BL21-CodonPlus (DE3)-RIL, purified (Glutathione Sepharose 4B), GST removed with PreScission Protease; incubated with GST-METTL9 in the absence of SAM
# T1 sequence (looked up): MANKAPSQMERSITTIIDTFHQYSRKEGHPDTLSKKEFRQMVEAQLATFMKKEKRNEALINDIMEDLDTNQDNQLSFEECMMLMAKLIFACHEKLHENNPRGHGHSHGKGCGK
# T2: recombinant S100A9 prepared by cleavage of GST-S100A9, methylated in vitro by GST-METTL9 in the presence of … (mouse, UniProt P31725 1-113, Nπ-methylhistidine at His-107)
# T2 construct: S100A9, mouse; methylated at His-107 by METTL9; also called de novo methylated S100A9; methylated recombinant S100A9; source: E. coli BL21-CodonPlus (DE3)-RIL, purified (Glutathione Sepharose 4B), GST removed with PreScission Protease; in vitro methylation reaction with GST-METTL9 in the presence of SAM
# T2 sequence (looked up): T1 sequence (looked up)
# B1: GST-fused mouse S100A8 (natural protein, UniProt P27005 1-89, looked up)
# chain: MPSELEKALSNLIDVYHNYSNIQGNHHALYKNDFKKMVTTECPQFVQNINIENLFRELDINSDNAINFEEFLAMVIKVGVASHKDSHKE
# notes: S100A8, mouse; Held on glutathione beads in the pull-downs; also called GST-S100A8; mS100A8; source: E. coli BL21, purified (Glutathione Sepharose 4B)
# What was measured:
# [1] = molecular target: T1, recombinant S100A9 prepared by cleavage …; assay: pull-down; recombinant GST-cleaved S100A9 after an in vitro methylation reaction with GST-METTL9 in the presence or the absence of SAM, then binding to GST-S100A8 (Fig. S6); details: both partners purified
# [2] = molecular target: T2, recombinant S100A9 prepared by cleavage …; assay: as above; details: both partners purified
binder,measurement,setting,value
B1,binding result,[1],binds
same,binding result,[2],binds
